Here are results for two molecules from US20090155251A1 (published 2009).

Experiment [1] has as its target T1, Mouse EphB4/Fc (R&D Systems) (mouse, UniProt P54761 16-539, limits assumed).
T1 construct: Bought reagent; also called EphB4/Fc fusion protein; not shown: Fc part, detected with anti-human Fc/IgG-FITC
T1 sequence (looked up): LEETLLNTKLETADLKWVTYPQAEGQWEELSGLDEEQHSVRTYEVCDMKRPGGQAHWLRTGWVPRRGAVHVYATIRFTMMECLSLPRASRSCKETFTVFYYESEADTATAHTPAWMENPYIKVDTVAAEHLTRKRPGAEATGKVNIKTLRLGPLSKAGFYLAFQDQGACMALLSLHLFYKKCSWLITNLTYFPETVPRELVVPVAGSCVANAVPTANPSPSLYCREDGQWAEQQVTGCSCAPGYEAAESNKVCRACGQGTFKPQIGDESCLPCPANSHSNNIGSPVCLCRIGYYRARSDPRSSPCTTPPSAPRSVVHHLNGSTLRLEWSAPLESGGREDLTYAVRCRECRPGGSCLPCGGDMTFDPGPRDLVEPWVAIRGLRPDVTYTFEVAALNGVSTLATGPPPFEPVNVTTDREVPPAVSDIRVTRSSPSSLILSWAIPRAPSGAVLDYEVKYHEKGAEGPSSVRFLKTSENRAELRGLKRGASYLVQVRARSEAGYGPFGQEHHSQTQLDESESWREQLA
Briefly: immunofluorescence on frozen KS biopsy sections, 5 ug/ml EphB4/Fc. The method, then: Immunofluorescence detection of EphrinB2 with EPHB4-Fc was done as follows. Frozen sections fixed in 4% paraformaldehyde and blocked with 20% FBS were incubated with 5 μg/ml EphB4/Fc (R&D Systems) for 1 h at RT. Sections were then incubated with 10 μg/ml rabbit anti-human IgG-FITC in PBS (Jackson ImmunoResearch Laboratories West Grove, Pa.) at RT for 1 hour. Nuclei were counterstained with DAPI and sections mounted as above. Human Fc (Jackson ImmunoResearch) was used as the negative control.

For experiment [2], the target named is T2, B4EC-NT (soluble EphB4 extracellular domain without epitope or purification tags) (human, UniProt P54760 16-539).
T2 construct: extracellular domain; also called EphB4ECnt; B4ECv3NT
T2 sequence (looked up): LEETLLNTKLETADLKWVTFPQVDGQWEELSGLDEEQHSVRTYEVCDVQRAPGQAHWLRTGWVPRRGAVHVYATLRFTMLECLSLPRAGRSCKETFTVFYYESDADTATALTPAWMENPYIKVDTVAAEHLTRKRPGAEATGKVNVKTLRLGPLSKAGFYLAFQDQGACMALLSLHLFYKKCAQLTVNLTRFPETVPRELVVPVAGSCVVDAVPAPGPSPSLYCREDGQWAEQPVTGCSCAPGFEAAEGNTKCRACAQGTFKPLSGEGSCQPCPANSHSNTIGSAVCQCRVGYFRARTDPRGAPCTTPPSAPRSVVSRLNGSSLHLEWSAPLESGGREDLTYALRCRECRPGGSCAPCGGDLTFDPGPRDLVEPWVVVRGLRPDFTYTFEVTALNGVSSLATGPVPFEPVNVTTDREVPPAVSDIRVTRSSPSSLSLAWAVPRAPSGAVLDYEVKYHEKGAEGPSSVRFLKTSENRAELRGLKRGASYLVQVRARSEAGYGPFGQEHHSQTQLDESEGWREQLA
As to the kind of experiment: B2EC-AP binding and competition assays on conditioned media of stable cell lines.

Experiment [3] has as its target T3, B4-GCF2 (recombinant soluble EphB4 extracellular domain: globular, Cys-rich and two FNIII domains, C-terminal … (human, UniProt P54760 16-537)).
T3 construct: Expressed in HEK293T, glycosylated
T3 sequence: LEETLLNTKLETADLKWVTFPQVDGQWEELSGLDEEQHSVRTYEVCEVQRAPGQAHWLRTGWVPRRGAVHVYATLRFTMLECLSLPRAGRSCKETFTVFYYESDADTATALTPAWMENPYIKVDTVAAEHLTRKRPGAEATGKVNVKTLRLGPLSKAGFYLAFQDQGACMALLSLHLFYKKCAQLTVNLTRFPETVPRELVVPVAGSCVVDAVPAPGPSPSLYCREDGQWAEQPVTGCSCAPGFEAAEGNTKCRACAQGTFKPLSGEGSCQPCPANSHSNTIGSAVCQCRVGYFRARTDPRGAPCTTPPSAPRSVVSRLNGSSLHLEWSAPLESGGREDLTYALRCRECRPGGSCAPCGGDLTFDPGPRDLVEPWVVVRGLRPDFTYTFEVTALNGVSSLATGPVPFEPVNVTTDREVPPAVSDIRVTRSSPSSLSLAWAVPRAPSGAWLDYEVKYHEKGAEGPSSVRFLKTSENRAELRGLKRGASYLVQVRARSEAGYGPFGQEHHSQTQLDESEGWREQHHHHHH
Briefly: Ephrin B2-AP binding to B4 proteins immobilized on Ni resin or nitrocellulose membrane. As to the method: (§1) To confirm ability of the purified recombinant proteins to bind Ephrin B2, they were tested in an in vitro binding assay. As expected, GC, GCF1 and GCF2, but not CF2 are binding the cognate ligand Ephrin B2 as confirmed by interaction between Ephrin B2—alkaline phosphatase (Ephrin B2-AP) fusion protein with the B4 proteins immobilized on Ni²⁺-resin or on nitrocellulose membrane (FIG. 17).
(§2) To test ligand binding properties of the proteins, 10 μl of Ni-NTA-Agarose (Qiagen) were incubated in microcentrifuge tubes with 10-500 ng sample of a B4-ECD protein diluted in 0.5 ml of binding buffer BB (20 mM Tris-HCl, 0.15 M NaCl, 0.1% bovine serum albumin, pH 8). After incubation for 30 min on shaking platform, Ni-NTA beads were washed twice with 1.4 ml of BB, followed by addition of B2-AP fusion protein at concentration of 50 nM. Binding was performed for 30 min on a shaking platform. Tubes were centrifuged and washed once with 1.4 ml of BB. Amount of precipitated AP was measured colorimetrically at 420 nm after application of p-nitrophenyl phosphate (PNPP) and incubation for 5-30 min.

Experiment [4] concerns the target T4, B4-GC (EphB4 globular domain + Cys-rich domain, C-terminal 6xHis) (human, UniProt P54760 16-326).
T4 construct: Printed mature EphB4 part counts 311 residues, the text says 1-312; also called B4EC-GC
T4 sequence: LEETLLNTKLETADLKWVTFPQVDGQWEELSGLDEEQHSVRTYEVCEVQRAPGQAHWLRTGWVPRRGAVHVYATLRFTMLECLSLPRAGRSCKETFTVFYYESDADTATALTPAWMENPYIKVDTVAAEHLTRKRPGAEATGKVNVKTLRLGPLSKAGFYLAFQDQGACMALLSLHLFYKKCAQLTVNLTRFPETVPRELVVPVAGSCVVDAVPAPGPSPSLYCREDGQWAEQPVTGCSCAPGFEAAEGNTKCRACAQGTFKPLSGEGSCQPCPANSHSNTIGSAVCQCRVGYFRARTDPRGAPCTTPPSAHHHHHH
Described as above. The method, then:
as §1, §2

Experiment [5] deals with T5, B4-CF2 (EphB4 extracellular domain with deleted globular domain: Cys-rich and two FNIII domains, V5 and 6xHis … (human, UniProt P54760 16-537)).
T5 sequence: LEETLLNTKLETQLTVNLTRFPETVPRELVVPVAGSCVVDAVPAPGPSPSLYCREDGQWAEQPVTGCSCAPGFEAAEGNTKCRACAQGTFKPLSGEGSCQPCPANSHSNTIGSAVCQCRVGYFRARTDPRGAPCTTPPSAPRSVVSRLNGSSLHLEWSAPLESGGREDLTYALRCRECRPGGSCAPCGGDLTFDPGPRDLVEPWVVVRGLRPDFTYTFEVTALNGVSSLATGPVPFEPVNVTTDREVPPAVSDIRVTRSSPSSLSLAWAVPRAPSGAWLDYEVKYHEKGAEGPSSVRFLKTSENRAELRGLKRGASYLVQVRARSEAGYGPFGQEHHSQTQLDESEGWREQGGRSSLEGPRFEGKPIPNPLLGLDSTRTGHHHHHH
The description is as above. As to the method:
as §1, §2

The target in experiment [6] is T6, B4ECv3 (soluble EphB4 extracellular domain with C-terminal V5 epitope tag and 6xHis tag) (human, UniProt P54760 16-537).
T6 construct: also called EphB4ECv3; GCF2 (v.3)
T6 sequence: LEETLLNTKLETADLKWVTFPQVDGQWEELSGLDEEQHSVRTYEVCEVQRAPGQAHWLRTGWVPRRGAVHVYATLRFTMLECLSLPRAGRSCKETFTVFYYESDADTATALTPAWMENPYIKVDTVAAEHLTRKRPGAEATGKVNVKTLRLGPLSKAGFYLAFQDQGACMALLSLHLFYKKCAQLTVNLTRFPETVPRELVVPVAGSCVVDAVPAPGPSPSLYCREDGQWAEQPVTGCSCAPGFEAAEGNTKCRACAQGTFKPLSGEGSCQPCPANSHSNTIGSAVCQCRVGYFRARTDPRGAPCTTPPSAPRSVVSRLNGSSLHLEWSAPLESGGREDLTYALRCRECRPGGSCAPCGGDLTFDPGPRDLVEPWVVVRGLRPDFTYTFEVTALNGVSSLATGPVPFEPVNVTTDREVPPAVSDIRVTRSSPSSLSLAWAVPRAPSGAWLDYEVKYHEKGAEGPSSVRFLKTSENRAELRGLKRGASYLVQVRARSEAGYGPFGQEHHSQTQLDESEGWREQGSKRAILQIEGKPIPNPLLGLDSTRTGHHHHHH
As to the kind of experiment: biochemical assays: Ni-NTA bead binding of B2-AP; inhibition in solution and cell based. The method, then:
10 μl of Ni-NTA-Agarose were incubated in microcentrifuge tubes with 50 μl of indicated amount of B4ECv3 diluted in binding buffer BB (20 mM Tris-HCl, 0.15 M NaCl, 0.1% bovine serum albumin pH 8) After incubation for 30 min on shaking platform, Ni-NTA beads were washed twice with 1.4 ml of BB, followed by application of 50 μl of B2-AP in the final concentration of 50 nM. Binding was performed for 30 min on shaking platform, and then tubes were centrifuged and washed one time with 1.4 ml of BB. Amount of precipitated AP was measured colorimetrically after application of PNPP.
Inhibition in solution. Different amounts of B4ECv3 diluted in 50 μl of BB were pre-incubated with 50 μl of 5 nM B2EC-AP reagent (protein fusion of Ephrin B2 ectodomain with placental alkaline phosphatase). After incubation for 1 h, unbound B2EC-AP was precipitated with 5,000 HEK293 cells expressing membrane-associated full-length EphB4 for 20 min. Binding reaction was stopped by dilution with 1.2 ml of BB, followed by centrifugation for 10 min. Supernatants were discarded and alkaline phosphatase activities associated with collected cells were measured by adding para-nitrophenyl phosphate (PNPP) substrate.
Cell based inhibition. B4ECv3 was serially diluted in 20 mM Tris-HCl, 0.15 M NaCl, 0.1% BSA, pH 8 and mixed with 5,000 HEK293 cells expressing membrane-associated full-length Ephrin B2. […]

Experiment [7] addresses T7, B4ECv3-FC (EphB4 extracellular domain fused to human IgG1 Fc) (human, UniProt P54760 16-539).
T7 construct: extracellular domain; also called B4EC-FC; not shown: Fc portion of human IgG1 (pIG vector)
T7 sequence (looked up): T2 sequence (looked up)
Briefly: biochemical assays: Protein A-agarose and nitrocellulose binding of B2EC-AP; inhibition assays (FIGS. 6-7). The method, then:
Protein A-agarose based assay. 10 μl of Protein A-agarose were incubated in Eppendorf tubes with 50 μl of indicated amount of B4EC-FC diluted in binding buffer BB (20 mM Tris-HCl, 0.15 M NaCl, 0.1% BSA pH 8). After incubation for 30 min on shaking platform, Protein AAagarose beads were washed twice with 1.4 ml of BB, followed by application of 50 μl of B2ECAP reagent at the final concentration of 50 nM. Binding was performed for 30 min on shaking platform, and then tubes were centrifuged and washed once with 1.4 ml of BB. Colorimetric reaction of precipitated AP was measured after application of PNPP (FIG. 6).
Nitrocellulose based assay. B4EC-FC was serially diluted in 20 mM Tris-HCl, 0.15 M NaCl, 50 μg/ml BSA, pH 8. 2 μl of each fraction were applied onto nitrocellulose strip and spots were dried out for 3 min. Nitrocellulose strip was blocked with 5% non-fat milk for 30 min, followed by incubation with 5 nM B2EC-AP reagent. After 45 min incubation for binding, nitrocellulose was washed twice with 20 mM Tris-HCl, 0.15 M NaCl, 50 μg/ml BSA, pH 8 and color was developed by application of alkaline phosphatase substrate Sigma Fast (Sigma).

B1: ephrin B2 on tumor cells of human Kaposi's sarcoma biopsy sections (ligand, UniProt P52799 28-333, looked up)
chain: IVLEPIYWNSSNSKFLPGQGLVLYPQIGDKLDIICPKVDSKTVGQYEYYKVYMVDKDQADRCTIKKENTPLLNCAKPDQDIKFTIKFQEFSPNLWGLEFQKNKDYYIISTSNGSLEGLDNQEGGVCQTRAMKILMKVGQDASSAGSTRNKDPTRRPELEAGTNGRSSTTSPFVKPNPGSSTDGNSAGHSGNNILGSEVALFAGIASGCIIFIVIIITLVVLLLKYRRRHRKHSPQHTTTLSLSTLATPKRSGNNNGSEPSDIIIPLRTADSVFCPHYEKVSGDYGHPVYIVQEMPPQSPANIYYKV
notes: whole, on cells
With B1, the binding result in experiment [1] is on record as “binds”.

B2: Ephrin B2-alkaline phosphatase (Ephrin B2-AP) fusion protein: Ephrin B2 ectodomain fused with placental alkaline phosphatase (ligand, human, UniProt P52799 28-229, looked up)
chain: IVLEPIYWNSSNSKFLPGQGLVLYPQIGDKLDIICPKVDSKTVGQYEYYKVYMVDKDQADRCTIKKENTPLLNCAKPDQDIKFTIKFQEFSPNLWGLEFQKNKDYYIISTSNGSLEGLDNQEGGVCQTRAMKILMKVGQDASSAGSTRNKDPTRRPELEAGTNGRSSTTSPFVKPNPGSSTDGNSAGHSGNNILGSEVALFA
notes: extracellular domain; Secreted reagent; also called B2EC-AP; B2ECAP; not shown: placental alkaline phosphatase of vector pAPTag2 (GenHunter)
B2: the binding result in experiment [2] is listed as “binds”; in experiment [3] it was “binds”; in experiment [4] it was “binds”; in experiment [5], “no binding (tested: 50 nM B2-AP; 10-500 ng B4-ECD protein)”; in experiment [6], “binds”; in experiment [7], “binds”.
